These are literature values, as cited in patent US20200181212A1 (priority 2014, published 2020).

The subject of the series is trypsin. The conditions noted are these: cited from earlier work.

Broadly, the residual activity is the signal under treatment as a percentage of the control signal. As for asparaginase [native asparaginase], the residual activity is reported as 5%.
